Assay results taken from publication PMC12402178.

Legend:
[1] = target: microtubules polymerised from porcine brain tubulin (GMPCPP-stabilised seeds, dynamic GDP lattice, or taxol-stabilised) (porcine) (UniProt P02550); experiment: FRAP (TIRF microscopy); anillin-GFP bleached on single GMPCPP microtubules; single exponential fit, median of fits
[2] = target: microtubules polymerised from porcine brain tubulin (GMPCPP-stabilised seeds, dynamic GDP lattice, or taxol-stabilised) (porcine) (UniProt P02550); experiment: FRAP (TIRF microscopy); anillin-GFP bleached on single GDP (dynamic) microtubules; single exponential fit, median of fits; 26 C

Anillin-GFP (full-length human anillin, isoform 2, 1087 amino acids), sequence (Q9NQW6 other isoform, or with tags, fused parts or gaps): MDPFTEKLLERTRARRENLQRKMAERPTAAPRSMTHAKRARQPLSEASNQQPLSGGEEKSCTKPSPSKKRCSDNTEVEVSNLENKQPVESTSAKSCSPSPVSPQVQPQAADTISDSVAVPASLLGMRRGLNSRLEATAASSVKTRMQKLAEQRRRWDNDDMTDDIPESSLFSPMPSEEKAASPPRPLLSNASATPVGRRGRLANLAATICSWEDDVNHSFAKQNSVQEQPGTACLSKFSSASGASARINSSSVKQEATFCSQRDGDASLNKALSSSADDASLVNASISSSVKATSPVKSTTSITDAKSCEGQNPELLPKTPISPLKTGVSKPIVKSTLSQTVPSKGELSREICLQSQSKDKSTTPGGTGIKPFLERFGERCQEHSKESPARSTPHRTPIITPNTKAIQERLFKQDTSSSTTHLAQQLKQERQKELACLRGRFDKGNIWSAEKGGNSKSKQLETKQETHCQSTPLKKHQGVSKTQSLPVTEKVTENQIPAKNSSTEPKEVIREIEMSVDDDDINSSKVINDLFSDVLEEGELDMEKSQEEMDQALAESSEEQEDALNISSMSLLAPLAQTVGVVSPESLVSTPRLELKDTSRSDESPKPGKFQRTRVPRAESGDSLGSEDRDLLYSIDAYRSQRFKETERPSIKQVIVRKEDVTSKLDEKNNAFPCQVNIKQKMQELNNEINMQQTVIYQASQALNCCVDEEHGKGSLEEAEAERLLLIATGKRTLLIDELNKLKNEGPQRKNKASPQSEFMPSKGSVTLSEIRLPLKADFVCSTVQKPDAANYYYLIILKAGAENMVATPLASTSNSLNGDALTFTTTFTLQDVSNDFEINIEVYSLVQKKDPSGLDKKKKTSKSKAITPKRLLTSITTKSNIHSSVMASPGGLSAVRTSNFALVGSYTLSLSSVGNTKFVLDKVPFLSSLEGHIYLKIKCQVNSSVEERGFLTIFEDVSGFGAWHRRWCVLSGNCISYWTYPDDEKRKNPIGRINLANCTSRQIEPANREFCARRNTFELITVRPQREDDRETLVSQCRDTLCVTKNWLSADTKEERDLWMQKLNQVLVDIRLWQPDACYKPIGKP

koff [1]: 0.26 s⁻¹
koff [2]: 1.07 s⁻¹
Substance: Anillin-GFP (full-length human anillin, isoform 2, 1087 amino acids) (from UniProt Q9NQW6-2 1-1087) (natural protein)
